The text below walks through data of the DeepSol protein solubility set.

This data set is described as follows: soluble on expression in E. coli; label from the status in PepcDB or PDB records.
As for “MIQFKDSYKHYGANGREVTALQPLNLEIRAGEVFGIIGHSGAGKSTMLRMINRLEEPSGGHLLINGQDITVLDRMGLRALRRQIGMIFQHFNLLSSYTVAGNVAFPLKLTGASDAKINARVAELLAWVGLEAHANTYPAQLSGGQKQRVGIARALATRPQILLCDEVTSALDPQTTSTVLQLLARINRELGLTIVLITHEMDVIRRICDRVAVLDTGRLVEIGLVTDVFLHPQHPTTRSFVMETEHIDTSALDQDFALVKGRIVRLTFIGTDTYLPLLGRVARETGVDYNILSGRIDRIKETPYGQLTVALSGGDPVAAQAAFAAAGIHIEELRA”, the “soluble on expression in E. coli” value is “not soluble”. In the case of “MGGVFSSASSNQAQITGILQELERTRLEREIALAHLQERRRIAFKIAEEREKFNWIACGGSLVVVLSALSSFHHKNLLHVIPIFPMASFIGYKAHFCYGDQLKKISETSTQLLEESVDALVPLPPTIADVRSRSKQIKEEESSNY”, the “soluble on expression in E. coli” value is recorded as “not soluble”. Consider “MSLNSSEHKIRITPLGGLGEIGGNISVFETNKDAIIVDIGMSFPDGTMHGVDIIIPDFDYVRKIKDKIRGIVITHAHEDHIGAVPYFFKEFQFPIYATPLALGMISNKFEEHGLKAERKWFRPVEKRRVYEIGEFDIEWIHITHSIIDASALAIKTKAGTIIHTGDFKIDQTPIDGYPTDLGRLAYYGEEGVLCLLSDSTNSYKEGYTKSESSVGLTFDQIFARTKGRVIMSTFSSNIHRVYQAITYGLKYGRKVCVIGRSMERNLYTTMELGYIKLDRKIFIDADEVSKYKDNEVLIVTTGSQGETMSALYRMATDEHKFIKIKPTDQVIISAKAIPGNEASVSAVLDYLLKAGAKVAYQEFSEIHVSGHASIEEQKLMLTLTKPKFFLPVHGEYNHITKHKETAMKCGIPERNIYLMSDGDQVELEGHHHHHH”, for which the “soluble on expression in E. coli” value is “soluble”. As to “MQELKDKIKKLGYEEIKDIDDATFIASHKNVYVYVKKVDEEQLKPELVTAITYEAMATDPISTYAWITNGTSNAYVLVEEEKAVSEIPSVFEDENKLYSGKRQLTDRDKWSIRKYQELQEKFDGLHEMIYGMKDHVNNSNDVIDEFSKLIFLETFRLYHPEYRLTKGNVTGKLFNEIYRYEYVEKHKDKAVQEIREAFKEIKDHADYVAILDNGEKANIFSADEYIKLENPNIYIAVLKALQDLGTIIIDGVERPATLRDLTGDVLGRVFDVLLRGKFENKGGMGIYLTPRQVTEAAAEMVLHDLTKDGAAKLIAKDPKTGIPTLRIGDLCCGSGGFLIKMLQKIEHYLLNKLTGDKKQYEELFEQMKEHCFIGADNAPGMVLKARINMALHGAPKCPIFQTRNSLMNTRLKPGTFDAILTNPPFSKTGISKTIKKGKTTVENPEGAEIIKYYSSDIDEDGQNRMSPYGLSLGSKPDSRGKWKEVNSVDPAVLFIDRNLQLLKPGGLLMIVVPDGILSNSGDKYVREYIMGKKNPVTGEFEGGKAILKAVISLPQVTFALSGAGAKTSLLYLKKKEHPGEKQGPVFMAVADEVGFTVKQNVEVQLGDDHNDLLKIVEAYKKGMPEDVE”, the “soluble on expression in E. coli” value is listed as “not soluble”. As for “MSDKPDSQVFCPNCNERLQKCLVQQNYAIIICPSLVCGYPFNQREVLENLTYVDDNDVLKVAKKRLSSRSKP”, the “soluble on expression in E. coli” value was “soluble”. In the case of “MQKINIDRHATAQINMLANKLMLKSSTAYTQKFGIGMTEWRIISVLSSASDCSVQKISDILGLDKAAVSRTVKKLEEKKYIEVNGHSEDKRTYAINLTEMGQELYEVASDFAIEREKQLLEEFEEAEKDQLFILLKKLRNKVDQM”, the “soluble on expression in E. coli” value is reported as “soluble”. Next, “MAMEIGEDEWKVCCGSSEFAKQMSTSGPLTSQEAIYTARDIWFNQVNVTDWLEAFSAHPQIGNTPSPSINSDFARRSVSEQSTAFATTSASALQELAEWNVLYKKKFGFIFIICASGRTHAEMLHALKERYENRPIVELEIAAMEQMKITELRMAKLFSDKAKVISETDSSSSPVSTKPQDRLRIIGGHLNVAAEAKAPKRSRPPITTHVLDVSRGAPAAGVEVHLEVWSGTTGPSFVHGGGGVWSSVGTSATDRDGRSGPLMDLVDALNPGTYRISFDTAKYSPGCFFPYVSIVFQVTESQKWEHFHVPLLLAPFSFSTYRGS”: “soluble”.
